From the supplement of paper PMC7125110
± gives the standard error. For some of these results: This sample holds only a part of the variants without activity.

B1: glmS ribozyme (parent)
chain: AUAAAAGCGCCAGAACUACAGAAAUGUAGUUGACGAGGAGGAGGUUUAUCGAAUUUUCGGCGGAUGCCUCCAAA

Tests used:
Conditions in all cases: with glucosamine-6-phosphate
glucosamine-6-phosphate [1] = variants of: B1; assay: kcat; higher = faster cleavage; RNA array
In short: (§1)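 E. coli RNA polymerase transcribed barcoded ribozyme variants in situ on sequenced MiSeq chips, which were tracked via a hybridised Cy3 probe at 37 °C. Tiles were imaged over ~14 h after glucosamine-6-phosphate (40 μM to 10 mM) in HEPES/KCl/Mg(OAc)2 buffer was flowed in. Normalised per-tile medians were fit to one- or two-exponential decays for kobs, and kcat and KM came from weighted Michaelis–Menten fits.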

glucosamine-6-phosphate [2] = variants of: B1; assay: KM; higher = weaker cofactor use; RNA array
In short: as §1

glucosamine-6-phosphate [3] = variants of: B1; assay: self-cleavage kobs at 40 uM GlcN6P; higher = faster cleavage; RNA array
In short: as §1

glucosamine-6-phosphate [4] = variants of: B1; assay: self-cleavage kobs at 640 uM GlcN6P; higher = faster cleavage; RNA array
In short: as §1

glucosamine-6-phosphate [5] = variants of: B1; assay: self-cleavage kobs at 2500 uM GlcN6P; higher = faster cleavage; RNA array
In short: as §1

glucosamine-6-phosphate [6] = variants of: B1; assay: self-cleavage kobs at 160 uM GlcN6P; higher = faster cleavage; RNA array
In short: as §1

glucosamine-6-phosphate [7] = variants of: B1; assay: self-cleavage kobs at 10000 uM GlcN6P; higher = faster cleavage; RNA array
In short: as §1

Row | Variant | kcat (glucosamine-6-phosphate [1]) [s⁻¹] | KM (glucosamine-6-phosphate [2]) [µM] | self-cleavage kobs at 40 uM GlcN6P (glucosamine-6-phosphate [3]) [s⁻¹] | self-cleavage kobs at 640 uM GlcN6P (glucosamine-6-phosphate [4]) [s⁻¹] | self-cleavage kobs at 2500 uM GlcN6P (glucosamine-6-phosphate [5]) [s⁻¹] | self-cleavage kobs at 160 uM GlcN6P (glucosamine-6-phosphate [6]) [s⁻¹] | self-cleavage kobs at 10000 uM GlcN6P (glucosamine-6-phosphate [7]) [s⁻¹]
1 | G13C U30C | 0.000129 ± 2e-05 | 1470 ± 480 | < 1e-05 | 4.05e-05 ± 1.7e-05 | 8.07e-05 ± 2e-05 |  | 
2 | G40C U47G | 0.000514 ± 9.8e-05 | 1190 ± 440 |  | 0.000157 ± 2.4e-05 | 0.00041 ± 5.3e-05 | 7.96e-05 ± 1.8e-05 | 0.000412 ± 7.9e-05
3 | C11G A14G | 1.62e-05 ± 3.1e-06 |  | < 1e-05 |  |  | < 1e-05 | 
4 | G59A C68U | 1.6e-05 ± 1.4e-06 |  |  |  |  |  | 
5 | G37U C68U | < 1e-05 |  |  |  |  |  | 
6 | G13U G63U | < 1e-05 |  | < 1e-05 |  |  |  | 
7 | C11U G13U | 6.21e-05 ± 5.4e-06 | 1020 ± 420 |  |  | 4.88e-05 ± 9.5e-06 |  | 5.47e-05 ± 8.2e-06
8 | A15G A64U | 0.000233 ± 2.7e-05 | 3870 ± 820 |  | 3.22e-05 ± 9e-06 | 9.11e-05 ± 1.2e-05 |  | 0.000169 ± 2.4e-05
9 | A64G C67A | 0.00338 ± 0.00073 | 1730 ± 520 | 9.53e-05 ± 1.7e-05 | 0.000794 ± 0.00012 | 0.0018 ± 0.00034 | 0.000303 ± 4.4e-05 | 0.00346 ± 0.00059
10 | G32A G44C C67U | 0.000144 ± 5.9e-05 |  | < 1e-05 |  | 0.000148 ± 4.6e-05 |  | 0.00011 ± 2.3e-05
11 | A15C U54G | 0.00559 ± 0.0011 | 2690 ± 780 | 0.000104 ± 1.6e-05 | 0.000903 ± 0.00029 | 0.00205 ± 0.00055 | 0.000285 ± 5.1e-05 | 0.00475 ± 0.0006
12 | G32C C58A | 0.000602 ± 8.9e-05 | 8220 ± 1700 |  | 4.35e-05 ± 8.2e-06 | 0.000139 ± 1.7e-05 |  | 0.000333 ± 4.8e-05
13 | G63U C70G | 2.12e-05 ± 4.8e-06 |  |  | 2.59e-05 ± 1.1e-05 | 2.19e-05 ± 1e-05 |  | 
14 | A48U U54C | 0.000526 ± 0.00015 |  |  | 5.32e-05 ± 1.7e-05 | 0.000255 ± 5.1e-05 |  | 0.000349 ± 6.3e-05
15 | C50U G59A | < 1e-05 |  | < 1e-05 |  | < 1e-05 | < 1e-05 | < 1e-05
16 | A12U U45G | 0.0202 ± 0.0044 | 1870 ± 530 | 0.000515 ± 6.4e-05 | 0.00546 ± 0.0011 | 0.0134 ± 0.0027 | 0.00127 ± 0.00021 | 0.0165 ± 0.0026
17 | U31G | 0.0277 ± 0.0077 | 3080 ± 1000 | 0.000403 ± 7.4e-06 | 0.00394 ± 0.00013 | 0.0126 ± 0.00057 | 0.00114 ± 4.7e-05 | 0.0227 ± 0.00081
18 | U57C C68A | 1.48e-05 ± 1.3e-06 | 184 ± 90 |  |  |  |  | < 1e-05

Row | Variant | kcat (glucosamine-6-phosphate [1]) [s⁻¹] | KM (glucosamine-6-phosphate [2]) [µM] | self-cleavage kobs at 40 uM GlcN6P (glucosamine-6-phosphate [3]) [s⁻¹] | self-cleavage kobs at 640 uM GlcN6P (glucosamine-6-phosphate [4]) [s⁻¹] | self-cleavage kobs at 2500 uM GlcN6P (glucosamine-6-phosphate [5]) [s⁻¹] | self-cleavage kobs at 160 uM GlcN6P (glucosamine-6-phosphate [6]) [s⁻¹] | self-cleavage kobs at 10000 uM GlcN6P (glucosamine-6-phosphate [7]) [s⁻¹]
19 | G13U U65G | 0.000372 ± 2.8e-05 | 3750 ± 540 |  | 5.82e-05 ± 1.2e-05 | 0.000136 ± 2.7e-05 |  | 0.000276 ± 3.5e-05
20 | G29U A52U | 0.000123 ± 1.2e-05 | 4620 ± 1400 |  |  |  |  | 8.41e-05 ± 1e-05
21 | U46G A52U | 0.000165 ± 1.2e-05 |  | < 1e-05 |  | 2.87e-05 ± 1.3e-05 | < 1e-05 | 7.51e-05 ± 2.1e-05
22 | A42G G43A | 0.000155 ± 2.1e-05 | 1440 ± 500 | < 1e-05 | 5.32e-05 ± 1.5e-05 | 8.7e-05 ± 2.3e-05 |  | 0.000143 ± 2.8e-05
23 | C50A C67A | 2.1e-05 ± 4.7e-06 |  |  |  |  |  | 
24 | C10U U30C G59A G60A C70U | < 1e-05 |  | < 1e-05 |  |  |  | 
25 | G43U C67G | 0.00171 ± 0.00015 | 1020 ± 150 | 7.18e-05 ± 1e-05 | 0.000597 ± 8.6e-05 | 0.00117 ± 0.0002 | 0.00022 ± 6e-05 | 0.00166 ± 0.00022
26 | U49G C71U | 0.00102 ± 0.00022 | 2160 ± 970 | 3.07e-05 ± 9.2e-06 | 0.000246 ± 2.9e-05 | 0.00041 ± 6.9e-05 |  | 0.000902 ± 7.8e-05
27 | C16U A53G | 0.0256 ± 0.012 |  | 0.00111 ± 0.00015 | 0.0112 ± 0.0028 | 0.013 ± 0.0042 | 0.00153 ± 0.00061 | 0.0282 ± 0.0061
28 | A33U U54A C70A | 4.75e-05 ± 1.3e-05 |  |  | 5.86e-05 ± 2e-05 |  |  | 
29 | G29C C71G | 8.64e-05 ± 1.2e-05 |  |  | 3.96e-05 ± 1.4e-05 | 8.9e-05 ± 1.2e-05 | 5.06e-05 ± 1.3e-05 | 8.49e-05 ± 1e-05
30 | A52G G62U | < 1e-05 |  |  |  |  |  | 
31 | G41C U45A | 0.000121 ± 5.5e-06 | 1240 ± 160 |  | 4.19e-05 ± 7.6e-06 |  |  | 0.000108 ± 1.1e-05
32 | U45G U55C | 0.00551 ± 0.00089 | 2350 ± 590 | 0.000129 ± 2.6e-05 | 0.00131 ± 0.0002 | 0.00273 ± 0.00035 | 0.000297 ± 5.2e-05 | 0.00455 ± 0.00058
33 | C8U A36C | < 1e-05 |  |  |  |  |  | < 1e-05
34 | A53G C61U | 2.57e-05 ± 1e-06 |  | < 1e-05 |  |  |  | 
35 | G29A G41U | 9.86e-05 ± 5e-06 | 1050 ± 200 |  | 3.55e-05 ± 1.5e-05 | 7.35e-05 ± 1.6e-05 |  | 8.74e-05 ± 1.5e-05
